The values below come from publication doi:10.1101/2023.08.08.552426.

In test [1] the target is smORF7 (A0901_04830) (Apilactobacillus kunkeei strain A0901). The test is described as follows: NMR relaxation.
The target in test [2] is smORF5 (A0901_04910) (Apilactobacillus kunkeei strain A0901). The test can be described thus: NMR relaxation.

For the substance smORF7 (A0901_04830) (natural protein), the stoichiometry N (commonly the number of molecules, sites or subunits per partner or assembly) in test [1] was 2.
smORF5 (A0901_04910) (natural protein) showed a stoichiometry N in test [2] of 2.
